From publication PMC4889915 (Nucleic Acids Research, 2016)

T1: GST-HDA6 (Arabidopsis thaliana, UniProt Q9FML2 1-471)
T1 sequence (looked up): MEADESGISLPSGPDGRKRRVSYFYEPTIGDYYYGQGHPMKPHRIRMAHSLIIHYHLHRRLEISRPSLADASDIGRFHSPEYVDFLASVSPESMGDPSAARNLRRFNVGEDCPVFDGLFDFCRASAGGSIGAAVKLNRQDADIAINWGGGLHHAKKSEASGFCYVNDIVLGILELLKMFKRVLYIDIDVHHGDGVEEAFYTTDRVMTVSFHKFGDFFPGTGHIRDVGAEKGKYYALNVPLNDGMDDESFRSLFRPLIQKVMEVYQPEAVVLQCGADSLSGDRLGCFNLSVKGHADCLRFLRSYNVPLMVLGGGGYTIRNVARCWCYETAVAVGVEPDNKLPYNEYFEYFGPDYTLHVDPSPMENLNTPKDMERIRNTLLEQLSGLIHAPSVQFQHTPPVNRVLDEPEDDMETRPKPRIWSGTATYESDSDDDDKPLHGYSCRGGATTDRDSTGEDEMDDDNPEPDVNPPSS

T2: AtTRB3-6xHis (Arabidopsis thaliana, UniProt Q9M2X3 1-295)
T2 sequence (looked up): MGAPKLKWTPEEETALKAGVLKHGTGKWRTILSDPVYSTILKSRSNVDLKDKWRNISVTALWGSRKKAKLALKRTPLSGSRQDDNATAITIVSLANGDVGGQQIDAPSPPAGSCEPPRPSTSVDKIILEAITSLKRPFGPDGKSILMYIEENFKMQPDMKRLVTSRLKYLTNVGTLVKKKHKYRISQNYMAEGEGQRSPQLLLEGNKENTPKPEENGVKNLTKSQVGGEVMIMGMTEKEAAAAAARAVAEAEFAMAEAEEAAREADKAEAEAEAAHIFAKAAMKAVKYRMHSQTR

B1: AtTRB2-6xHis (natural protein, Arabidopsis thaliana, UniProt Q9FJW5 1-299, looked up)
chain: MGAPKQKWTPEEEAALKAGVLKHGTGKWRTILSDTEFSLILKSRSNVDLKDKWRNISVTALWGSRKKAKLALKRTPPGTKQDDNNTALTIVALTNDDERAKPTSPGGSGGGSPRTCASKRSITSLDKIIFEAITNLRELRGSDRTSIFLYIEENFKTPPNMKRHVAVRLKHLSSNGTLVKIKHKYRFSSNFIPAGARQKAPQLFLEGNNKKDPTKPEENGANSLTKFRVDGELYMIKGMTAQEAAEAAARAVAEAEFAITEAEQAAKEAERAEAEAEAAQIFAKAAMKALKFRIRNHPW
B2: GST-HDT4 (full-length) (enzyme, Arabidopsis thaliana, UniProt Q9M4T3 1-203, looked up)
chain: MEFWGIEIKPGKPFKVIQKDGFMVHASQVTLGDVEKVKKDETFAVYVKIGDDENGFMIGNLSQKFPQFSIDLYLGHEFEISHNSTSSVYLIGYRTFDAFDELDEEIDSDSELDEYMEQQIAALPQNEINPEEDDESDSDEMGLDEDDDSSDEEDVEAEAPLKVAPPSKKMPNGAFEIAKGGKKNKSSGGKKRCPFPCGPSCKK

Tests used:
Test in all cases: pull-down
GST-HDA6 = molecular target: T1, GST-HDA6
AtTRB2-6xHis = molecular target: B1
AtTRB3-6xHis = molecular target: T2, AtTRB3-6xHis

| binding result (GST-HDA6) | binding result (AtTRB2-6xHis) | binding result (AtTRB3-6xHis) | Binder |
| --- | --- | --- | --- |
| binds |  |  | B1 |
|  | binds | binds | B2 |
